In article PMC5938747:

Tested on: Nc1ccn([C@@H]2O[C@H](COP(=O)(O)OP(=O)(O)O)[C@@H](O)[C@H]2O)c(=O)n1
Assay: purified protein
Conditions: 10 mM ATP, MgCl2 4 mM excess, pH 8.0, 25 °C

## Cj1415 (cytidine diphosphoramidate kinase, CDK) (Campylobacter jejuni subsp. jejuni NCTC 11168 = ATCC 700819)
  Km: 4.2 ± 0.7 mM
  kcat: 0.64 ± 0.04 s⁻¹
